Source: paper doi:10.1101/2023.12.10.570962 (bioRxiv, 2023)

Molecular target: the molecule itself
Test: SEC-MALS

B1: Lcl C-terminal domain (Lcl-CTD), residues 252 to 401 (domain or fragment)
chain: MAHHHHHHVDDDDKMETGQVLAKSNDLDFNTMWVDPANSGIRRQLGDKALGGTVIYVNALGTHGLVVANSDQVNSNTWWDAQDSITNPAHFDNEGKLYSDWRLPTRFELNLIYMMRNELGNFLAGNYWSSIEKSSANSWVFNSKTGEIKDIAKSKTAAVRAVRAF
- stoichiometry N: 3
